Experimental data: US20150344570A1 (published 2015)

Legend:
[1] = target: T1, FcγRIa extracellular domain with C-terminal His tag (human, UniProt P12314 16-292); experiment: SPR Biacore, antibody captured on antigen-peptide chip, FcγR as analyte
T1 construct: extracellular domain; Soluble receptor used as analyte in Biacore; also called FcgRI; FcgRIa

[2] = target: T2, FcγRIIb extracellular domain with C-terminal His tag (human, UniProt P31994 43-217); experiment: as above
T2 construct: extracellular domain; Soluble receptor used as analyte in Biacore; also called FcgRIIb; CD32B
T2 sequence (looked up): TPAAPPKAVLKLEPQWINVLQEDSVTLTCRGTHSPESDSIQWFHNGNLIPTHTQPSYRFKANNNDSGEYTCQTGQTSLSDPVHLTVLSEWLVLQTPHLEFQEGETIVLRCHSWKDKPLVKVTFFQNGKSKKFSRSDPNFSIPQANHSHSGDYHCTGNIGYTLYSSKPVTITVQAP

[3] = target: T3, FcγRIIa H (FcgRIIa type H, His at position 131), extracellular domain with C-terminal His tag (human, UniProt P12318 34-217); experiment: SPR; He/Con_2aH divided by He/Con_2b (FcγRIIa H binding over FcγRIIb binding)
T3 construct: extracellular domain; also called 2aH; FcgRIIa H; not shown: His tag at the C terminus
T3 sequence (looked up): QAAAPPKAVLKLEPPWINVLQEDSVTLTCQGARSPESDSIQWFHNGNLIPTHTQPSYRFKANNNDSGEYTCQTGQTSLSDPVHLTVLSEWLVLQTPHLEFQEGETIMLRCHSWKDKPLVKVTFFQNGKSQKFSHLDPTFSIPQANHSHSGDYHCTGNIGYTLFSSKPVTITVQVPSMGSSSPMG

[4] = target: T3, FcγRIIa H (FcgRIIa type H, His at …); experiment: SPR (Biacore), relative binding, GpH7-A5/GpH7-B3/GpL16-k0 = 100
[5] = target: T4, FcγRIIb, extracellular domain with C-terminal His tag (human, UniProt P31994 43-217); experiment: as above
T4 construct: extracellular domain; also called 2b; FcgRIIb; not shown: His tag at the C terminus
T4 sequence (looked up): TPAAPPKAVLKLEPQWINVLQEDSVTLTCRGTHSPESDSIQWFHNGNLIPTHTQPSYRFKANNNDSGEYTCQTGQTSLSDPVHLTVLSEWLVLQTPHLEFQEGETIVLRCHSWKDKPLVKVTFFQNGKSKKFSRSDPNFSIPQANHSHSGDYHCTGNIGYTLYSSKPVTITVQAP

T1 sequence (P12314 16-292): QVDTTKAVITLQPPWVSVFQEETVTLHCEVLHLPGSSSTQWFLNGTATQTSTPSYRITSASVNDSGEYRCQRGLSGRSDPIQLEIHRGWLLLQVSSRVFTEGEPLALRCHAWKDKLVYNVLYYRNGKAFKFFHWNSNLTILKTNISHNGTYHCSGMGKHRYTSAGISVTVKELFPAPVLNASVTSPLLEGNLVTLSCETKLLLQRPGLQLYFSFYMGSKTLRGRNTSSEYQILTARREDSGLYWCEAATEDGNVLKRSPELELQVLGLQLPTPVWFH

| Binder | He/Con_1a [1] | He/Con_2b [2] | He_2aH/2b (IIaH/IIb) [3] | He/Con_2aH [4] | He/Con_2b [5] |
| --- | --- | --- | --- | --- | --- |
| GpH7-A5/GpH7-B3 variant E269_01G/GpL16-k0 (antibody, human IgG1, kappa, Heterodimerized anti-glypican-3 IgG1; mutation in the GpH7-B3 chain only; also called He Ab E269G) heavy 1: not shown heavy 2: not shown light: DIVMTQSPLSLPVTPGEPASISCQASESLVHSNRNTYLHWYLQKPGQSPQLLIYKVSNRFSGVPDRFSGSGSGTDFTLKISRVEAEDVGVYYCSQNTHVPPTFGQGTKVEIERTVAAPSVFIFPPSDEQLKSGTASVVCLLNNFYPREAKVQWKVDNALQSGNSQESVTEQDSKDSTYSLSSTLTLSKADYEKHKVYACEVTHQGLSSPVTKSFNRGEC | 104 relative, GpH7-A5/GpH7-B3/GpL16-k0 = 100 | 51.5 relative, GpH7-A5/GpH7-B3/GpL16-k0 = 100 |  |  |  |
| GpH7-A5/GpH7-B3 variant V266_20W/GpL16-k0 (antibody, human IgG1, kappa, He Ab; alteration in one H chain only; also called He Ab) heavy 1: not shown heavy 2: not shown light: DIVMTQSPLSLPVTPGEPASISCQASESLVHSNRNTYLHWYLQKPGQSPQLLIYKVSNRFSGVPDRFSGSGSGTDFTLKISRVEAEDVGVYYCSQNTHVPPTFGQGTKVEIERTVAAPSVFIFPPSDEQLKSGTASVVCLLNNFYPREAKVQWKVDNALQSGNSQESVTEQDSKDSTYSLSSTLTLSKADYEKHKVYACEVTHQGLSSPVTKSFNRGEC |  |  | 0.17 ratio | 12 % of control | 71.9 % of control |
| GpH7-A5/GpH7-B3 variant E269_03V/GpL16-k0 (antibody, human IgG1, kappa, Heterodimerized anti-glypican-3 IgG1; mutation in the GpH7-B3 chain only; also called He Ab E269V) heavy 1: not shown heavy 2: not shown light: DIVMTQSPLSLPVTPGEPASISCQASESLVHSNRNTYLHWYLQKPGQSPQLLIYKVSNRFSGVPDRFSGSGSGTDFTLKISRVEAEDVGVYYCSQNTHVPPTFGQGTKVEIERTVAAPSVFIFPPSDEQLKSGTASVVCLLNNFYPREAKVQWKVDNALQSGNSQESVTEQDSKDSTYSLSSTLTLSKADYEKHKVYACEVTHQGLSSPVTKSFNRGEC | 103 relative, GpH7-A5/GpH7-B3/GpL16-k0 = 100 | 45.1 relative, GpH7-A5/GpH7-B3/GpL16-k0 = 100 |  |  |  |
| GpH7-A5/GpH7-B3 variant V266_16H/GpL16-k0 (antibody, human IgG1, kappa, He Ab; alteration in one H chain only; also called He Ab) heavy 1: not shown heavy 2: not shown light: DIVMTQSPLSLPVTPGEPASISCQASESLVHSNRNTYLHWYLQKPGQSPQLLIYKVSNRFSGVPDRFSGSGSGTDFTLKISRVEAEDVGVYYCSQNTHVPPTFGQGTKVEIERTVAAPSVFIFPPSDEQLKSGTASVVCLLNNFYPREAKVQWKVDNALQSGNSQESVTEQDSKDSTYSLSSTLTLSKADYEKHKVYACEVTHQGLSSPVTKSFNRGEC |  |  | 0.37 ratio | 21.2 % of control | 57.2 % of control |
| GpH7-A5/GpH7-B3 variant E269_08L/GpL16-k0 (antibody, human IgG1, kappa, Heterodimerized anti-glypican-3 IgG1; mutation in the GpH7-B3 chain only; also called He Ab E269L) heavy 1: not shown heavy 2: not shown light: DIVMTQSPLSLPVTPGEPASISCQASESLVHSNRNTYLHWYLQKPGQSPQLLIYKVSNRFSGVPDRFSGSGSGTDFTLKISRVEAEDVGVYYCSQNTHVPPTFGQGTKVEIERTVAAPSVFIFPPSDEQLKSGTASVVCLLNNFYPREAKVQWKVDNALQSGNSQESVTEQDSKDSTYSLSSTLTLSKADYEKHKVYACEVTHQGLSSPVTKSFNRGEC | 104 relative, GpH7-A5/GpH7-B3/GpL16-k0 = 100 | 42.9 relative, GpH7-A5/GpH7-B3/GpL16-k0 = 100 |  |  |  |
| GpH7-A5/GpH7-B3 variant E269_06M/GpL16-k0 (antibody, human IgG1, kappa, Heterodimerized anti-glypican-3 IgG1; mutation in the GpH7-B3 chain only; also called He Ab E269M) heavy 1: not shown heavy 2: not shown light: DIVMTQSPLSLPVTPGEPASISCQASESLVHSNRNTYLHWYLQKPGQSPQLLIYKVSNRFSGVPDRFSGSGSGTDFTLKISRVEAEDVGVYYCSQNTHVPPTFGQGTKVEIERTVAAPSVFIFPPSDEQLKSGTASVVCLLNNFYPREAKVQWKVDNALQSGNSQESVTEQDSKDSTYSLSSTLTLSKADYEKHKVYACEVTHQGLSSPVTKSFNRGEC | 104 relative, GpH7-A5/GpH7-B3/GpL16-k0 = 100 | 46.7 relative, GpH7-A5/GpH7-B3/GpL16-k0 = 100 |  |  |  |
| GpH7-A5/GpH7-B3 variant E269_05P/GpL16-k0 (antibody, human IgG1, kappa, Heterodimerized anti-glypican-3 IgG1; mutation in the GpH7-B3 chain only; also called He Ab E269P) heavy 1: not shown heavy 2: not shown light: DIVMTQSPLSLPVTPGEPASISCQASESLVHSNRNTYLHWYLQKPGQSPQLLIYKVSNRFSGVPDRFSGSGSGTDFTLKISRVEAEDVGVYYCSQNTHVPPTFGQGTKVEIERTVAAPSVFIFPPSDEQLKSGTASVVCLLNNFYPREAKVQWKVDNALQSGNSQESVTEQDSKDSTYSLSSTLTLSKADYEKHKVYACEVTHQGLSSPVTKSFNRGEC | 102 relative, GpH7-A5/GpH7-B3/GpL16-k0 = 100 | 52.6 relative, GpH7-A5/GpH7-B3/GpL16-k0 = 100 |  |  |  |
| GpH7-A5/GpH7-B3 variant E269_11K/GpL16-k0 (antibody, human IgG1, kappa, Heterodimerized anti-glypican-3 IgG1; mutation in the GpH7-B3 chain only; also called He Ab E269K) heavy 1: not shown heavy 2: not shown light: DIVMTQSPLSLPVTPGEPASISCQASESLVHSNRNTYLHWYLQKPGQSPQLLIYKVSNRFSGVPDRFSGSGSGTDFTLKISRVEAEDVGVYYCSQNTHVPPTFGQGTKVEIERTVAAPSVFIFPPSDEQLKSGTASVVCLLNNFYPREAKVQWKVDNALQSGNSQESVTEQDSKDSTYSLSSTLTLSKADYEKHKVYACEVTHQGLSSPVTKSFNRGEC | 95.2 relative, GpH7-A5/GpH7-B3/GpL16-k0 = 100 | 17.8 relative, GpH7-A5/GpH7-B3/GpL16-k0 = 100 |  |  |  |
| GpH7-A5/GpH7-B3 variant V266_19Q/GpL16-k0 (antibody, human IgG1, kappa, He Ab; alteration in one H chain only; also called He Ab) heavy 1: not shown heavy 2: not shown light: DIVMTQSPLSLPVTPGEPASISCQASESLVHSNRNTYLHWYLQKPGQSPQLLIYKVSNRFSGVPDRFSGSGSGTDFTLKISRVEAEDVGVYYCSQNTHVPPTFGQGTKVEIERTVAAPSVFIFPPSDEQLKSGTASVVCLLNNFYPREAKVQWKVDNALQSGNSQESVTEQDSKDSTYSLSSTLTLSKADYEKHKVYACEVTHQGLSSPVTKSFNRGEC |  |  | 0.52 ratio | 46.4 % of control | 89.2 % of control |
| GpH7-A5/GpH7-B3 variant Y300_10E/GpL16-k0 (antibody, human IgG1, kappa, He Ab; alteration in one H chain only; also called He Ab) heavy 1: not shown heavy 2: not shown light: DIVMTQSPLSLPVTPGEPASISCQASESLVHSNRNTYLHWYLQKPGQSPQLLIYKVSNRFSGVPDRFSGSGSGTDFTLKISRVEAEDVGVYYCSQNTHVPPTFGQGTKVEIERTVAAPSVFIFPPSDEQLKSGTASVVCLLNNFYPREAKVQWKVDNALQSGNSQESVTEQDSKDSTYSLSSTLTLSKADYEKHKVYACEVTHQGLSSPVTKSFNRGEC |  |  | 0.73 ratio | 97.2 % of control | 134 % of control |
| GpH7-A5/GpH7-B3 variant E269_04F/GpL16-k0 (antibody, human IgG1, kappa, Heterodimerized anti-glypican-3 IgG1; mutation in the GpH7-B3 chain only; also called He Ab E269F) heavy 1: not shown heavy 2: not shown light: DIVMTQSPLSLPVTPGEPASISCQASESLVHSNRNTYLHWYLQKPGQSPQLLIYKVSNRFSGVPDRFSGSGSGTDFTLKISRVEAEDVGVYYCSQNTHVPPTFGQGTKVEIERTVAAPSVFIFPPSDEQLKSGTASVVCLLNNFYPREAKVQWKVDNALQSGNSQESVTEQDSKDSTYSLSSTLTLSKADYEKHKVYACEVTHQGLSSPVTKSFNRGEC | 103 relative, GpH7-A5/GpH7-B3/GpL16-k0 = 100 | 45 relative, GpH7-A5/GpH7-B3/GpL16-k0 = 100 |  |  |  |
| GpH7-A5/GpH7-B3 variant E269_07I/GpL16-k0 (antibody, human IgG1, kappa, Heterodimerized anti-glypican-3 IgG1; mutation in the GpH7-B3 chain only; also called He Ab E269I) heavy 1: not shown heavy 2: not shown light: DIVMTQSPLSLPVTPGEPASISCQASESLVHSNRNTYLHWYLQKPGQSPQLLIYKVSNRFSGVPDRFSGSGSGTDFTLKISRVEAEDVGVYYCSQNTHVPPTFGQGTKVEIERTVAAPSVFIFPPSDEQLKSGTASVVCLLNNFYPREAKVQWKVDNALQSGNSQESVTEQDSKDSTYSLSSTLTLSKADYEKHKVYACEVTHQGLSSPVTKSFNRGEC | 103 relative, GpH7-A5/GpH7-B3/GpL16-k0 = 100 | 43.9 relative, GpH7-A5/GpH7-B3/GpL16-k0 = 100 |  |  |  |
| GpH7-A5/GpH7-B3 variant E269_02A/GpL16-k0 (antibody, human IgG1, kappa, Heterodimerized anti-glypican-3 IgG1; mutation in the GpH7-B3 chain only; also called He Ab E269A) heavy 1: not shown heavy 2: not shown light: DIVMTQSPLSLPVTPGEPASISCQASESLVHSNRNTYLHWYLQKPGQSPQLLIYKVSNRFSGVPDRFSGSGSGTDFTLKISRVEAEDVGVYYCSQNTHVPPTFGQGTKVEIERTVAAPSVFIFPPSDEQLKSGTASVVCLLNNFYPREAKVQWKVDNALQSGNSQESVTEQDSKDSTYSLSSTLTLSKADYEKHKVYACEVTHQGLSSPVTKSFNRGEC | 104 relative, GpH7-A5/GpH7-B3/GpL16-k0 = 100 | 49.9 relative, GpH7-A5/GpH7-B3/GpL16-k0 = 100 |  |  |  |
| GpH7-A5/GpH7-B3 variant E269_12R/GpL16-k0 (antibody, human IgG1, kappa, Heterodimerized anti-glypican-3 IgG1; mutation in the GpH7-B3 chain only; also called He Ab E269R) heavy 1: not shown heavy 2: not shown light: DIVMTQSPLSLPVTPGEPASISCQASESLVHSNRNTYLHWYLQKPGQSPQLLIYKVSNRFSGVPDRFSGSGSGTDFTLKISRVEAEDVGVYYCSQNTHVPPTFGQGTKVEIERTVAAPSVFIFPPSDEQLKSGTASVVCLLNNFYPREAKVQWKVDNALQSGNSQESVTEQDSKDSTYSLSSTLTLSKADYEKHKVYACEVTHQGLSSPVTKSFNRGEC | 97.1 relative, GpH7-A5/GpH7-B3/GpL16-k0 = 100 | 25.2 relative, GpH7-A5/GpH7-B3/GpL16-k0 = 100 |  |  |  |
